Experiments:
[1] = test system: 5' NS-TALEN (artificial (TALE-FokI)); assay: cleavage_in_vitro; conditions: pair with 3' HT-TALEN; 747 bp PCR template, 30 C
[2] = test system: 5' NS-TALEN (in cells) (artificial (TALE-FokI)); assay: cell_activity; conditions: NS pair in HeLa-tat-III/LTR/d1EGFP cells; 2 of 23 clones mutated

TCTCTGGTTAGACCAGATCT (double strand) [5' TALE binding target, HIV-1 LTR TAR]
activity [1]: 42 % cleavage | activity [2]: 30 % GFP loss
